# Patent US12365732 (23ANDME, dated 2025)
# T1: hu-CD96 isoform 1 on HEK293T cells (human, UniProt P40200 22-585)
# T1 construct: Origene RC213845, transient expression; also called HEK293T-CD96 (iso1)
# T1 sequence: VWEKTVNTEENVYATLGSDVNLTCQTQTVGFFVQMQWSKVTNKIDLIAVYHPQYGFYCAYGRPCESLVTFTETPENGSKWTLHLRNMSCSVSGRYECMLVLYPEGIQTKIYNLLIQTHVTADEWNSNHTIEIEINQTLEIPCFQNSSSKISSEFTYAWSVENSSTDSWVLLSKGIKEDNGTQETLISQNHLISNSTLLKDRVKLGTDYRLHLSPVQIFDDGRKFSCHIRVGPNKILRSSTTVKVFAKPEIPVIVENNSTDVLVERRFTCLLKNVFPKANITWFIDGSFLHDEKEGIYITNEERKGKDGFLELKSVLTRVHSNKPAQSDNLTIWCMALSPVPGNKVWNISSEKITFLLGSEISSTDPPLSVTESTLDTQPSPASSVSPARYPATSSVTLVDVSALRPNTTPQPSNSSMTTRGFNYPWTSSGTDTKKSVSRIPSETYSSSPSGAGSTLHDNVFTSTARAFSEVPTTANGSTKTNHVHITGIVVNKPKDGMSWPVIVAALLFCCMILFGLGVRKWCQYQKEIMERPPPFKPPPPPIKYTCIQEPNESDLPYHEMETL
# T2: cynomolgus monkey CD96 on cynomolgus monkey PBMCs (cynomolgus monkey, UniProt A0A2K5TWV6 22-569)
# T2 construct: whole, on cells
# T2 sequence: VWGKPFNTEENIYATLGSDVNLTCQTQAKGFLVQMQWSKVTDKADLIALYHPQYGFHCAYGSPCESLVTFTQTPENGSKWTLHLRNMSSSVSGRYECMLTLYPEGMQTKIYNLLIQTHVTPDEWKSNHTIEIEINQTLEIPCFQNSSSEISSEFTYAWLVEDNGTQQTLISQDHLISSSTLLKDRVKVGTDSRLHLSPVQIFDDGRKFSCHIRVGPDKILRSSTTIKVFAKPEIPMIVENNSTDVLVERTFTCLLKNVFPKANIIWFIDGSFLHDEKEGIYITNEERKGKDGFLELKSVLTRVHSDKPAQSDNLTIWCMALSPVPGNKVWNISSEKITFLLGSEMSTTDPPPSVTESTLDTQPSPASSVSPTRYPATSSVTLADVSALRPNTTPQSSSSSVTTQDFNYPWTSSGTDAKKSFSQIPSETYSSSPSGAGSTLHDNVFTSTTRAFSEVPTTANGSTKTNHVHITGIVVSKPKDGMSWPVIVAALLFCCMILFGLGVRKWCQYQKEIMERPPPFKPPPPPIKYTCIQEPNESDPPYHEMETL
# Columns and labels:
# [1] = target: T1, hu-CD96 isoform 1 on HEK293T cells; assay: FACS, Ab 0.4 nM
# Method: Isoform 1 of hu-CD96 (Origene, catalog #RC213845) was transiently expressed in HEK293T cells following standard lipofectamine or Fugene transfection protocol. […] Cells were washed, and binding was detected by incubation with anti-mouse IgG-FITC (Biolegend, catalog #406001) for 20 minutes at 4° C. Cell binding was analyzed by flow cytometry with a CytoFLEX (Beckman Coulter). Binding curves were calculated as a percentage of cells positive for bound antibody.
# [2] = target: T3, cy-CD96 Fc (cynomolgus monkey, biotinylated in Table 16); assay: SPR 25C, CD96-Fc on Protein A, Fab analyte
# T3 construct: also called biotinylated cy-CD96-Fc
# Method: Briefly, hu-CD96 Fc and cy-CD96 Fc were diluted at 10 µg/mL in HBS-P buffer (0.01 M HEPES pH 7.4, 0.15 M NaCl, 0.005% Surfactant P20) and applied to the Protein A chip at 30 µL/min flow rate for 60 s in flow cell 2 (FC2). Then flow 3-fold serial dilutions of mAb1.v7 Fab variants in HBS-P buffer (0.01 M HEPES pH 7.4, 0.15 M NaCl, 0.005% surfactant P20) from (0.4 nM) to high (1000 nM) were injected (flow rate: 30 µL/min) at 25° C. to both flow cell 1 (FC1) and flow cell 2 (FC2). The sensorgram was recorded and subject to reference and buffer subtraction before evaluating by BIA- CORE® 8K Evaluation Software (version 1.1.1.7442). Association rates ($kon$) and dissociation rates ($koff$) were calculated using a simple one-to-one Langmuir binding model. The equilibrium dissociation constant (K_D) was calculated as the ratio of $koff/kon$, and the values determined for the mAb1.v7 and the 5 Fab variants are summarized in Table 10 (below).
# [3] = target: T2, cynomolgus monkey CD96 on cynomolgus …; assay: FACS, Ab 0.0256 nM
# Method: (§1) The ability of the anti-CD96 antibodies to bind primary immune cells from human and cynomolgus monkey with lower level of receptor expression was measured. Human PBMCs (StemCell Technologies, catalog #70025) and cynomolgus monkey PBMCs (Primate Biologicals, catalog #CM-MC) were incubated with human TruStain FcX (Biolegend, catalog #422302) for 10 minutes at 4° C., followed by incubation with an anti-CD96 antibody for 20 minutes at 4° C. Cells were washed and the anti-CD96 antibody binding was detected by incubation with anti-mouse IgG-PE (Thermo Fisher, catalog #M30204) or anti-human IgG (Fab) 2-PE (Thermo Fisher, catalog #H10104) for 20 minutes at 4° C. Cells were washed, and immune subtypes were labeled with anti-CD3 (BD, catalog #557705), anti-CD4 (Biolegend, catalog #317424) and anti-CD8 (BD, catalog #557760) for 20 minutes at 4° C. Cell binding was analyzed by flow cytometry with a CytoFLEX (Beckman Coulter). Binding curves were calculated as a percentage of cells positive for bound antibody in the cell type of interest.
# [4] = target: T2, cynomolgus monkey CD96 on cynomolgus …; assay: FACS, Ab 80 nM
# Method: as §1
# T3 sequence (chain, as listed by the source): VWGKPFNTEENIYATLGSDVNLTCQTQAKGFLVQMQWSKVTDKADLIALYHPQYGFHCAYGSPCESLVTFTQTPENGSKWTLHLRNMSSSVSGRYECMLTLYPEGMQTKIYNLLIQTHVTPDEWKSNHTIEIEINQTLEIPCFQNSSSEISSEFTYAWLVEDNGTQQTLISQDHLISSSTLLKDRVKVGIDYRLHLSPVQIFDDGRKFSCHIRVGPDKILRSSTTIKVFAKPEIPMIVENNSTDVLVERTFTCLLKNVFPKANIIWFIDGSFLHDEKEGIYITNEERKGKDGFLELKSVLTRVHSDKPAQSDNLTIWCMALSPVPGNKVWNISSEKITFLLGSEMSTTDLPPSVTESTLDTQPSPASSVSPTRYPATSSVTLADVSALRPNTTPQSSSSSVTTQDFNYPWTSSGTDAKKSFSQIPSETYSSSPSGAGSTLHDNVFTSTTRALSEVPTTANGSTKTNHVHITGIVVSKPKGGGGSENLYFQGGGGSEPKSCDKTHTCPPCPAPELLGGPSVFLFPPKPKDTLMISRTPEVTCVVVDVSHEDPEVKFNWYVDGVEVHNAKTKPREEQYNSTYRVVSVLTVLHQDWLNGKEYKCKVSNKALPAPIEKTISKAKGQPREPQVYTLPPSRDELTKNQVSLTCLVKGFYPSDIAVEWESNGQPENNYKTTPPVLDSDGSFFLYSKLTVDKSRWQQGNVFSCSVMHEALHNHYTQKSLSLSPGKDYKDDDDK
binder,measurement,setting,value
"7E5, purified hybridoma antibody (antibody, V domains shown, murine hybridoma IgG) VH: QVQLKESGPGLVAPSQSLSIICTVSGFSLTNYGIHWIRQPPGKGLEWLGIIWAGGSTNYNSALMSRLTISKDNSKSQVFLKMNSLQTNDTAIYYCARVSMMGFAYWGQGTLVTVSA VL: QAVVTQESALTTSPGETVTLTCRSSTGAVTTSNYANWVQEKPDHLFTGLIGGTNNRAPGVPARFSGSLIGDKAALTITGAQTEDEAIYFCSLWYGSHWVFGGGTKLTVL",% positive,[1],20.4%
"mAb1.v7.2 Fab (Fab, V domains shown, also called M34R/P52aF/T97V) VH: EVQLVQSGAEVKKPGASVKVSCKASGFTFTNNWRHWVRQAPGQGLEWIGMIHFNSGITNINEKFKNRVTMTTDTSTSTAYMELRSLRSEDTAVYYCRSDGVYEGYFDYWGQGTLVTVSS VL: DIQLTQSPSSLSASVGDRVTITCKASQNVGTAIVWYQQKPGKAPKVLIYSASTRYTGVPSRFSGSGSGTDFTLTISSLQPEDFATYYCQQYSSSPLTFGQGTKVEIK",Kd,[2],9.24 nM
same,koff,[2],0.00024 s⁻¹
same,kon,[2],26000 M⁻¹ s⁻¹
"mAb1.v7 IgG (humanized 12F8) (antibody, V domains shown, human IgG1 N297G) VH: EVQLVQSGAEVKKPGASVKVSCKASGFTFTNNWMHWVRQAPGQGLEWIGMIHPNSGITNINEKFKNRVTMTTDTSTSTAYMELRSLRSEDTAVYYCRSDGTYEGYFDYWGQGTLVTVSS VL: DIQLTQSPSSLSASVGDRVTITCKASQNVGTAIVWYQQKPGKAPKVLIYSASTRYTGVPSRFSGSGSGTDFTLTISSLQPEDFATYYCQQYSSSPLTFGQGTKVEIKG",% positive,[1],12.2%
"mAb1.v7.70 Fab (Fab, V domains shown, also called N32R/P52aA/T97V) VH: EVQLVQSGAEVKKPGASVKVSCKASGFTFTNRWMHWVRQAPGQGLEWIGMIHANSGITNINEKFKNRVTMTTDTSTSTAYMELRSLRSEDTAVYYCRSDGVYEGYFDYWGQGTLVTVSS VL: DIQLTQSPSSLSASVGDRVTITCKASQNVGTAIVWYQQKPGKAPKVLIYSASTRYTGVPSRFSGSGSGTDFTLTISSLQPEDFATYYCQQYSSSPLTFGQGTKVEIK",Kd,[2],5 nM
same,koff,[2],0.000189 s⁻¹
same,kon,[2],37200 M⁻¹ s⁻¹
"mAb1.v7.9 Fab (Fab, V domains shown, also called M34R/P52aM/T97V) VH: EVQLVQSGAEVKKPGASVKVSCKASGFTFTNNWRHWVRQAPGQGLEWIGMIHMNSGITNINEKFKNRVTMTTDTSTSTAYMELRSLRSEDTAVYYCRSDGVYEGYFDYWGQGTLVTVSS VL: DIQLTQSPSSLSASVGDRVTITCKASQNVGTAIVWYQQKPGKAPKVLIYSASTRYTGVPSRFSGSGSGTDFTLTISSLQPEDFATYYCQQYSSSPLTFGQGTKVEIK",Kd,[2],22 nM
same,koff,[2],0.000802 s⁻¹
same,kon,[2],36400 M⁻¹ s⁻¹
"mAb1.v7.16 Fab (Fab, V domains shown, also called M34R/T97V) VH: EVQLVQSGAEVKKPGASVKVSCKASGFTFTNNWRHWVRQAPGQGLEWIGMIHPNSGITNINEKFKNRVTMTTDTSTSTAYMELRSLRSEDTAVYYCRSDGVYEGYFDYWGQGTLVTVSS VL: DIQLTQSPSSLSASVGDRVTITCKASQNVGTAIVWYQQKPGKAPKVLIYSASTRYTGVPSRFSGSGSGTDFTLTISSLQPEDFATYYCQQYSSSPLTFGQGTKVEIK",Kd,[2],94 nM
same,koff,[2],0.000972 s⁻¹
same,kon,[2],10400 M⁻¹ s⁻¹
"mAb1.v7.48 Fab (Fab, V domains shown, also called N32R/P52aH/T97V) VH: EVQLVQSGAEVKKPGASVKVSCKASGFTFTNRWMHWVRQAPGQGLEWIGMIHHNSGITNINEKFKNRVTMTTDTSTSTAYMELRSLRSEDTAVYYCRSDGVYEGYFDYWGQGTLVTVSS VL: DIQLTQSPSSLSASVGDRVTITCKASQNVGTAIVWYQQKPGKAPKVLIYSASTRYTGVPSRFSGSGSGTDFTLTISSLQPEDFATYYCQQYSSSPLTFGQGTKVEIK",Kd,[2],8.9 nM
same,koff,[2],0.000328 s⁻¹
same,kon,[2],36600 M⁻¹ s⁻¹
"mAb1.v7.NGS11 IgG (antibody, V domains shown, human IgG1 N297G) VH: EVQLVQSGAEVKKPGASVKVSCKASGFTFTNNFMHWVRQAPGQGLEWIGFIHANSGITNINEKFKNRVTMTTDTSTSTAYMELRSLRSEDTAVYYCRSDGVYEGYFDYWGQGTLVTVSS VL: DIQLTQSPSSLSASVGDRVTITCKASQNVGTAIVWYQQKPGKAPKVLIYSASTRYTGVPSRFSGSGSGTDFTLTISSLQPEDFATYYCQQYSSSPLTFGQGTKVEIKG",% positive,[3],41%
same,% positive,[4],81.9%
"mAb1.v7.NGS9 IgG (antibody, V domains shown, human IgG1 N297G) VH: EVQLVQSGAEVKKPGASVKVSCKASGFTFTNNFMHWVRQAPGQGLEWIGMIHANSGITNINEKFKNRVTMTTDTSTSTAYMELRSLRSEDTAVYYCRSDGVYEGYFDYWGQGTLVTVSS VL: DIQLTQSPSSLSASVGDRVTITCKASQNVGTAIVWYQQKPGKAPKVLIYSASTRYTGVPSRFSGSGSGTDFTLTISSLQPEDFATYYCQQYSSSPLTFGQGTKVEIKG",% positive,[3],19.7%
same,% positive,[4],73.8%
"mAb1.v7.NGS10 IgG (antibody, V domains shown, human IgG1 N297G) VH: EVQLVQSGAEVKKPGASVKVSCKASGFTFTNNFMHWVRQAPGQGLEWIGFIHANSGITNINEKFKNRVTMTTDTSTSTAYMELRSLRSEDTAVYYCRSDGIYEGYFDYWGQGTLVTVSS VL: DIQLTQSPSSLSASVGDRVTITCKASQNVGTAIVWYQQKPGKAPKVLIYSASTRYTGVPSRFSGSGSGTDFTLTISSLQPEDFATYYCQQYSSSPLTFGQGTKVEIKG",% positive,[3],37.2%
same,% positive,[4],75.2%
"9H4, purified hybridoma antibody (antibody, V domains shown, murine hybridoma IgG) VH: EVQLLETGGGLVKSGGSLKLSCAASGFTFSDYYMYWVRQTPEKRLEWVAAISDDGTYTYYPDSVKGRFTISRDNANNYLYLQMSSLKSEDTAIYYCAKAGSYDYFDVWGAGTTVTVSS VL: DIVLTQSPASLAVSLGQRAIISCKASQSVTFADTGLMHWYQQKPGQQPKLLIYRASNLEVGVPTRFSGSGSGTDFTLNIHPVEEEDVATYYCQQSREYPWTFGGGTKLEIK",% positive,[1],13.9%
"10G1 (clone 10G1.3G8), purified hybridoma antibody (antibody, V domains shown, murine hybridoma IgG) VH: QIQLVQSGPELKKPGETVKISCKASGYPFTTYGMSWVKQAPGKGLKWMGWINTDSGVPTYADDFKGRFAFSLETSANTAYLQINSLKNEDAATYFCARNIYYGWGNFDYWGQGTILTVSS VL: DILMTQSPTTLSVTPGETVSLSCRASQDIYRNLHWYQQKSQGTPRLLIKHASDSISGIPSRFTGSGSGTDFTLSINSVKPEDEGIYYCLQGYSMPYTFGGGTKLEIK",% positive,[1],34.6%
"h10G1 IgG (humanized 10G1) (antibody, V domains shown, human IgG1 N297G) VH: EIQLVQSGSELKKPGASVKVSCKASGYPFTTYGMSWVRQAPGQGLEWMGWINTDSGVPTYADDFKGRFVFSLDTSVSTAYLQISSLKAEDTAVYFCARNIYYGWGNFDYWGQGTLVTVSS VL: EIVMTQSPDFQSVTPKEKVTITCRASQDIYRNLHWYQQKPDQTPKLLIKHASDSISGIPSRFSGSGSGTDFTLTINSLEAEDAAAYYCLQGYSMPYTFGGGTKVEIKG",% positive,[3],16.8%
same,% positive,[4],68.3%
